Results taken from US20100008909A1 (ZymoGenetics, published 2010).
Values joined by “and” are separate entries in the source; they are usually repeats but may differ in a detail not shown here. Equal entries are not always repeated.

Target: T1, biotinylated IL31 (human, UniProt Q6EBC2 24-164, biotinylated (sites not given))
T1 construct: also called human IL-31; huIL-31
T1 sequence: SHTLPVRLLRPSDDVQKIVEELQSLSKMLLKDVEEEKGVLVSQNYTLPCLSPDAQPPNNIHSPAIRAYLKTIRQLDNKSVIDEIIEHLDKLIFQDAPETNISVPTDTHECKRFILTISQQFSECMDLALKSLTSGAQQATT
Assay: ELISA with a dilution series of biotinylated IL31, 4-parameter fit (apparent Kd/EC50 as IL31 concentration); parental mouse mAb as control; average of duplicate
Excerpt: The assay format utilized a goat anti-human Fc immobilization for capture of human monoclonal antibodies from unprocessed cell culture conditioned media. A dilution series of biotinylated IL31 tested the “C” parameter of a 4-parameter fit which results in the apparent Kd (or EC50) in either ng/mL or nM of IL31. The assay sensitivity is high enough that dilute monoclonal antibody or chimeric antibody cell culture conditioned media can be evaluated. The Kd determined by this method generally approaches the Kd measured for purified, homogeneous monoclonal antibodies measured using Biacore.

EC50: 0.0043 µg/mL and 0.26 nM
B1: 292.63.5.3 (Lot E9289) Control monoclonal antibody (antibody, V domains shown)
VH: EVQLVESGGDLVKPGGSLKLSCAASGFTFSTFIMSWVRQSPEKRLEWVATINSGGYYTFHPDSVKGRFTISRDNAKNTLYLQMSSLRSEDTAIYYCARQEGWSSAYFSWGQGTLVTVSA
VL: DIVMTQSPSSLDMSEGQKVTMICKSSQSLLNGSNQKNYLAWYQQKPGQSPKLLVSFASTRDSGVPDRFIGSGSGTDFTLTITNVQAEDLADYFCQQHYDTPYTFGGGKLEIR
notes: Mouse anti-human IL-31 hybridoma monoclonal antibody
